{
  "source": "paper PMC5755487",
  "about": "“Combining Chemical Cross-linking and Mass Spectrometry of Intact Protein Complexes to Study the Architecture of Multi-subunit Protein Assemblies” (Journal of Visualized Experiments : JoVE, 2017)",
  "molecules": {"B1": {"name": "large subunit of carbamoyl phosphate synthase (CPS) from Escherichia coli (enzyme)", "chain": "MPKRTDIKSILILGAGPIVIGQACEFDYSGAQACKALREEGYRVILVNSNPATIMTDPEMADATYIEPIHWEVVRKIIEKERPDAVLPTMGGQTALNCALELERQGVLEEFGVTMIGATADAIDKAEDRRRFDVAMKKIGLETARSGIAHTMEEALAVAADVGFPCIIRPSFTMGGSGGGIAYNREEFEEICARGLDLSPTKELLIDESLIGWKEYEMEVVRDKNDNCIIVCSIENFDAMGIHTGDSITVAPAQTLTDKEYQIMRNASMAVLREIGVETGGSNVQFAVNPKNGRLIVIEMNPRVSRSSALASKATGFPIAKVAAKLAVGYTLDELMNDITGGRTPASFEPSIDYVVTKIPRFNFEKFAGANDRLTTQMKSVGEVMAIGRTQQESLQKALRGLEVGATGFDPKVSLDDPEALTKIRRELKDAGADRIWYIADAFRAGLSVDGVFNLTNIDRWFLVQIEELVRLEEKVAEVGITGLNADFLRQLKRKGFADARLAKLAGVREAEIRKLRDQYDLHPVYKRVDTCAAEFATDTAYMYSTYEEECEANPSTDREKIMVLGGGPNRIGQGIEFDYCCVHASLALREDGYETIMVNCNPETVSTDYDTSDRLYFEPVTLEDVLEIVRIEKPKGVIVQYGGQTPLKLARALEAAGVPVIGTSPDAIDRAEDRERFQHAVERLKLKQPANATVTAIEMAVEKAKEIGYPLVVRPSYVLGGRAMEIVYDEADLRRYFQTAVSVSNDAPVLLDHFLDDAVEVDVDAICDGEMVLIGGIMEHIEQAGVHSGDSACSLPAYTLSQEIQDVMRQQVQKLAFELQVRGLMNVQFAVKNNEVYLIEVNPRAARTVPFVSKATGVPLAKVAARVMAGKSLAEQGVTKEVIPPYYSVKEVVLPFNKFPGVDPLLGPEMRSTGEVMGVGRTFAEAFAKAQLGSNSTMKKHGRALLSVREGDKERVVDLAAKLLKQGFELDATHGTAIVLGEAGINPRLVNKVHEGRPHIQDRIKNGEYTYIINTTSGRRAIEDSRVIRRSALQYKVHYDTTLNGGFATAMALNADATEKVISVQEMHAQIK", "notes": "carbamoyl phosphate synthase large subunit, Escherichia coli; also called large CPS subunit"}},
  "key": {"[1]": {"molecular_target": "RvB2 subunit of the RvB1/B2 complex from Chaetomium thermophilum (Chaetomium thermophilum)", "test": "native MS; purified complex exchanged into 200 mM ammonium acetate, nano-electrospray, Q-ToF instrument; intact complexes and sub-complexes"}, "[2]": {"molecular_target": "B1", "test": "native MS; purified complex exchanged into 200 mM ammonium acetate, nano-electrospray, Q-ToF instrument; intact complexes and sub-complexes", "settings": "both partners purified"}, "[3]": {"molecular_target": "the molecule itself", "test": "cross-linking; purified complex with BS3 (0.5-5 mM titrated), 25 °C, 1 h; SDS-PAGE, in-gel trypsin digestion, LC-MS/MS, pLink search"}},
  "note": "Where “and” joins values, the source holds several entries; their conditions need not be identical. Equal values may be shown once.",
  "data": [
    {"molecule": "RvB1 subunit of the RvB1/B2 complex from Chaetomium thermophilum (natural protein)", "values": [
      {"measurement": "stoichiometry N (RvB1 per RvB2 (3:3))", "setting": "[1]", "result": 1},
      {"measurement": "stoichiometry N (RvB1 per RvB2 (6:6))", "setting": "[1]", "result": 1}
    ]},
    {"molecule": "small subunit of carbamoyl phosphate synthase (CPS) from Escherichia coli (enzyme, carbamoyl phosphate synthase small subunit, Escherichia coli; also called small CPS subunit) MIKSALLVLEDGTQFHGRAIGATGSAVGEVVFNTSMTGYQEILTDPSYSRQIVTLTYPHIGNVGTNDADEESSQVHAQGLVIRDLPLIASNFRNTEDLSSYLKRHNIVAIADIDTRKLTRLLREKGAQNGCIIAGDNPDAALALEKARAFPGLNGMDLAKEVTTAEAYSWTQGSWTLTGGLPEAKKEDELPFHVVAYDFGAKRNILRMLVDRGCRLTIVPAQTSAEDVLKMNPDGIFLSNGPGDPAPCDYAITAIQKFLETDIPVFGICLGHQLLALASGAKTVKMKFGHHGGNHPVKDVEKNVVMITAQNHGFAVDEATLPANLRVTHKSLFDGTLQGIHRTDKPAFSFQGHPEASPGPHDAAPLFDHFIELIEQYRKTAK", "values": [
      {"measurement": "stoichiometry N", "setting": "[2]", "result": "1 small per large subunit (1:1) and 1 small per large subunit (2:2)"}
    ]},
    {"molecule": "B1", "values": [
      {"measurement": "binding result", "setting": "[3]", "result": "binds"}
    ]}
  ]
}
